T1: WT-ZnT2-YC (human, UniProt Q9BRI3 1-372, Carries a C-terminal YC reporter (non-fluorescent C-terminal half of YFP), not included in the letters.)
T1 construct: BiFC construct expressed in living MCF-7 cells; not shown: YC, the C-terminal half of YFP, and any linker to it
T1 sequence: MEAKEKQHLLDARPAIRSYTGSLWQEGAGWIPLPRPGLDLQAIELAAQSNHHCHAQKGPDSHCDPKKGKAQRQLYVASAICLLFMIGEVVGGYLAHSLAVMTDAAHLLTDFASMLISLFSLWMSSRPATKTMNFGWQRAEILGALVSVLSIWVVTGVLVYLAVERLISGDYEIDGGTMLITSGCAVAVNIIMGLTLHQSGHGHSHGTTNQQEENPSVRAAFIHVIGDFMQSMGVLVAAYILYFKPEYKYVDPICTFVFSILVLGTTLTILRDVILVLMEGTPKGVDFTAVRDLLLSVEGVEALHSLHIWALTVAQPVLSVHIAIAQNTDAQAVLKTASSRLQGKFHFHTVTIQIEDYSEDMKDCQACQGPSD

B1: WT-ZnT2-YN (other)
chain: T1 sequence
modifications: Carries a C-terminal YN reporter (non-fluorescent N-terminal half of YFP), not included in the letters.
notes: BiFC construct expressed in living MCF-7 cells; not shown: YN, the N-terminal half of YFP, and any linker to it
B2: Δ9AA-ZnT2-YN (other)
chain: MEAKEKQHLLDARPAIRSYTGSLWQEGAGWIPLPRPGLDLQAIELAAQSNHHCHAQKGPDSHCDPKKGKAQRQLYVASAICLLFMIGEVVGGYLAHSLAVMTDAAHLLTDFASMLISLFSLWMSSRPATKTMNFGWQRAEILGALVSVLSIWVVTGVLVYLAVERLISGDYEIDGGTMLITSGCAVAVNIIMGLTLHQSGHGHSHGTTNQQEENPSVRAAFIHVIGDFMQSMGVLVAAYILYFKPEYKYVDPICTFVFSILVLGTTLTILRDVILVLMEAVRDLLLSVEGVEALHSLHIWALTVAQPVLSVHIAIAQNTDAQAVLKTASSRLQGKFHFHTVTIQIEDYSEDMKDCQACQGPSD
modifications: Carries a C-terminal YN reporter (non-fluorescent N-terminal half of YFP), not included in the letters.
notes: Deletion introduced into the ZnT2 BiFC plasmid by site-directed mutagenesis (27 bp, 839_865del); also called Δ9AA-YN; truncated Δ9AA-ZnT2; not shown: YN, the N-terminal half of YFP, and any linker to it
B3: Δ9AA-ZnT2-YC (other)
chain: B2 chain
modifications: Carries a C-terminal YC reporter (non-fluorescent C-terminal half of YFP), not included in the letters.
notes: Deletion introduced into the ZnT2 BiFC plasmid by site-directed mutagenesis (27 bp, 839_865del); also called Δ9AA-YC; truncated Δ9AA-ZnT2; not shown: YC, the C-terminal half of YFP, and any linker to it

For assay [1], the target named is T2, β2AR-YC (UniProt P07550 1-413).
T2 construct: whole, on cells; Negative control partner in the BiFC assay; not shown: YC: non-fluorescent C-terminal half of YFP (BiFC tag)
The assay is described as follows: BiFC in MCF-7 cells, YFP fluorescence by flow cytometry. How it is done:
(§1) The ability of the alternative 3′ splice variant (Δ9AA) ZnT2 to form homodimers was evaluated using the bimolecular fluorescence complementation (BiFC) assay that has been previously applied for the detection of in situ dimerization of ZnT2 and other ZnTs in living cells. High YFP fluorescence intensity indicates a strong interaction between the two tagged proteins, as this enables the refolding of the two non-fluorescent halves of YFP (YN and YC) into a fully fluorescent protein.
Background: A flow cytometer gives signals particle by particle.

The target in assay [2] is T1, WT-ZnT2-YC. The assay is described as follows: western blot of BiFC transfectants (SDS-metastable dimers), anti-ZnT2 antibody. How it is done: MCF-7 cells were transiently transfected with the designated plasmids (3 μg in single construct transfection and 1.5 μg DNA of each construct in co-transfections). Membrane proteins were isolated on ice using an extraction buffer as previously described (Golan Y., et al., Journal of Biological Chemistry, 2015, 290(14):9050-63). Briefly, proteins (30 μg) were resolved by electrophoresis on 10% polyacrylamide gels, electroblotted onto cellulose nitrate membranes, blocked with Tris-buffered saline (TBS)-milk and reacted with mouse anti-ZnT2 monoclonal antibody (at 1:2,000 dilution, 1 hr at room temperature; generously provided by Prof T Kambe, Kyoto University, Kyoto, Japan). […] Similarly, actual protein loading onto the SDS-PAGE gels was confirmed by blot reprobing with a rabbit polyclonal antibody against the a subunit of Na⁺/K⁺ ATPase (KETTY at 1:3,000 dilution; kindly provided by Prof. S. J. D. Karlish, Weizmann Institute of Science, Rehovot, Israel) and detected with horseradish peroxidase-conjugated goat anti-rabbit IgG (1:15,000 dilution; Jackson Immunoresearch Labs, West Grove, Pa.).
The dimerization results were further confirmed by western blot analysis. […] However, in contrast to the ZnT2 protein which was predominantly present in the homodimer form (FIG. 4C, uppermost band), upon co-transfection of Δ9AA-YN+Δ9AA-YC no homodimers were detected (FIG. 4C). […]
On the technique in general: A western blot detects proteins with antibodies after separation by electrophoresis.

Assay [3] concerns the target B3. The assay is described as follows: BiFC in MCF-7 cells, YFP fluorescence by flow cytometry. As to the method:
as §1

Assay [4] addresses T1, WT-ZnT2-YC. The assay is described as above. How it is done: as §1
Assay [5] addresses B1. The assay is described as above. How it is done:
as §1

As for B1, the results for the binding result in assay [1] and in assay [2] were “no binding” and “binds”, respectively.

B2: the binding result in assay [3] and in assay [4] was “no binding” in each case. With B3, the binding result in assay [5] was “no binding”.
